Publication PMC3568674

B1: GbAH (Granulibacter bethesdensis allophanate hydrolase), wt (Granulibacter bethesdensis CGDNIH1) (protein)
chain: MTLSMTLEGIQAFLAQGGTIEQVVTEAYDRITRYGDKAVWIALRPREEVLAEARALDASPATGKPLYGVPFAVKDNIDVAGLPCSAACPAFTYEPDRDATVVARLRAAGAIVLGKTNLDQFATGLVGTRSPFGAPRCVFDQDYISGGSSSGSAVAVAAGLVAFSLGTDTAGSGRVPAAFNNLVGVKPTKGLLSTSGVVPACRSLDCVTVFAASVAEGTLIRRIAEGYDAADPYSRPSQKRRLPHVGLRVGVPRQDQREFYGNTAYAALYQRALDEMISLDAELVEIDFAPFRDAAKLLYGGPWVAERLEAVGDHLSRAPDSFDPVVRSIVETAKTLSAVDAFRGQYELAALTQQANAQWARMDILLLPTAPTIHKVEAVMADPVRLNSQLGHYTNFVNLLDCAAIAVPAGFIETGLPFGVTLVGPAFSDDSMALIADRLHRRLEPGYGQDRASLPDPVLEETNPEQIALAVVGAHLSGQPLHWQLTERNATLVARTRTAPEYRLYALAETIPPKPGLVADPDFTGDGIEIELWSMDAEAFGTFTALVPAPLAIGTLRLADGTSVKGFVCEPAGLVGAQDITRFGGWRAYLAQ

What was measured:
NC(=O)NC(=O)O = experiment: purified protein; format: biochemical, Granulibacter bethesdensis; conditions: 50 mM HEPES pH 7.4, 50 mM NaCl, 1 mM EGTA, 25 °C
purified protein = substrate: NC(=O)NC(=O)O; experiment: purified protein; format: biochemical, Granulibacter bethesdensis; conditions: 50 mM HEPES pH 7.4, 50 mM NaCl, 1 mM EGTA, 25 °C; remark: listed apart in the source

| Molecule | Km (NC(=O)NC(=O)O) [µM] | kcat (NC(=O)NC(=O)O) [s⁻¹] | kcat/Km (NC(=O)NC(=O)O) [M⁻¹ s⁻¹] | Km (purified protein) [µM] | kcat (purified protein) [s⁻¹] | kcat/Km (purified protein) [M⁻¹ s⁻¹] |
| --- | --- | --- | --- | --- | --- | --- |
| GbAH (Granulibacter bethesdensis allophanate hydrolase), wt (Granulibacter bethesdensis CGDNIH1; Y299F) | 1200 ± 100 | 0.042 ± 0.001 | 35 ± 3 |  |  |  |
| GbAH (Granulibacter bethesdensis allophanate hydrolase), wt (Granulibacter bethesdensis CGDNIH1; Y299A) | 3000 ± 400 | 0.071 ± 0.002 | 24 ± 3 |  |  |  |
| B1 |  |  |  | 100 ± 2 | 18 ± 1 | 180000 ± 3000 |
